In patent publication US20110014182A1 (published 2011):

Molecular target: T1, human β-amyloid (1-40) peptide (human, UniProt P05067 672-711)
T1 construct: domain: β-amyloid (1-40); Used free in solution, coated on plates, or N- or C-terminally biotinylated, as told under assay; also called Aβ peptide (1-40); Aβ1-40
Assay: SPR (Biacore T100), antibody captured on anti-human IgG, beta amyloid (1-40), 37°C
Method: Anti-human IgG (Biacore BR-1008-39) was coupled to a CM5 biosensor chip by primary amine coupling. The anti-beta amyloid antibodies were captured on this surface. Beta amyloid (1-40) was then passed over at 256, 64, 16, 4 and 1 nM, with a 0 nM (ie buffer alone passed over the captured antibody surface) used for double referencing. […] The data was analysed using the 1:1 model inherent to the T100. The run was carried out at 25° C. and 37° C. using HBS-EP as the running buffer.
From this panel some constructs were also assessed for binding kinetics at physiological temperature.

T1 sequence (P05067 672-711 limits assumed): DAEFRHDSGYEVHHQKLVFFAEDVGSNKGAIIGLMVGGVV

Kd: 4.21 nM
B1: humanised de-immunised construct H49L17 (antibody, name in Kabat numbering, V domains shown)
VH: QVQLVQSGAEVKEPGASVKVSCKGSGFNIKTYYVHWLRQLPEKGLEWIGRIDPENGETIYTPKFQDKATLTVDTSTDTAYMELSSLRSEDTAVYYCVSSGYWGQGTLVTVSS
VL: DIVMTQSPLSNPVTPGEPASISCRSSKSLLHRNGITYLYWYLQKPGQSPQLLIYQMSHLASGVPDRFSSSGSGTDFTLKISRVEAEDVGVYYCAQNLELWTFGQGTKVEIK
